From patent US20150368338A1 (Janssen / Centocor, published 2015)

T1: IFN-αF (human, UniProt P01568 24-189)
T1 construct: also called IFN-α21; alpha F
T1 chain: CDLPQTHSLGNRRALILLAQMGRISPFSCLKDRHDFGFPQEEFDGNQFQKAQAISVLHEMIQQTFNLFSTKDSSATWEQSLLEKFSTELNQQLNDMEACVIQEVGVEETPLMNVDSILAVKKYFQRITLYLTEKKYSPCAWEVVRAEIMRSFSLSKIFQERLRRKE


Assays:
Assay in all cases: ProteOn, one antigen concentration
human IFN-ω = target: T2, human IFN-ω (human, UniProt P05000 24-195)
T2 construct: also called interferon omega

IFN-αC = target: T3, IFN-αC (human, UniProt P01566 24-189)
T3 construct: also called IFN-α10; alpha C

IFN-αF = target: T1, IFN-αF
IFN-αJ1 = target: T4, IFN-αJ1 (human, UniProt P01567 24-189)
T4 construct: also called IFN-α7; alpha J1

IFN-α4a = target: T5, IFN-α4a (human, UniProt P05014 24-189)
T5 construct: also called IFN-αM1

IFN-αG = target: T6, IFN-αG (human, UniProt P01569 24-189)
T6 construct: also called IFN-α5; alpha G

IFN-αWA = target: T7, IFN-αWA (human, UniProt P05015 24-189)
T7 construct: also called IFN-α16; alpha WA

Row | Binder | Kd (human IFN-ω) [nM] | Kd (IFN-αC) [nM] | Kd (IFN-αF) [nM] | Kd (IFN-αJ1) [nM] | Kd (IFN-α4a) [nM] | Kd (IFN-αG) [nM] | Kd (IFN-αWA) [nM]
1 | IFWM3353 (antibody, V domains shown, VH IFWH624, VL IFWL1014; converted mAb; also called IFWB3088) VH: EVQLVQSGAEVKKPGESLKISCKGSGYSFTSYWIGWVRQMPGKGLEWMGIIDPSDSDTAYSPSFQGQVTISADKSISTAYLQWSSLKASDTAMYYCARHPGLNWAPDFDYWGQGTLVTVSS VL: DIQMTQSPSSLSASVGDRVTITCRASQSIDRALNWYQQKPGKAPKLLIYFASSLQSGVPSRFSGSGSGTDFTLTISSLQPEDFATYYCQQSFDFPLTFGQGTKVEIK | 0.006 | 0.054 | 0.055 | 0.095 | 0.11 | 0.016 | 0.031
2 | IFWM3329 (antibody, V domains shown, VH IFWH591, VL IFWL1067; converted mAb; also called IFWB3064) VH: EVQLVQSGAEVKKPGESLKISCKGSGYSFTSYWIGWVRQMPGKGLEWMGIIDPSDSDTRYSPSFQGQVTISADKSISTAYLQWSSLKASDTAMYYCARHPGLNWAPDFDYWGQGTLVTVSS VL: DIQMTQSPSSLSASVGDRVTITCRASQSIRNNNLNWYQQKPGKAPKLLIHWASSLQSGVPSRFSGSGSGTDFTLTISSLQPEDFATYYCQQGYDTPFTFGQGTKVEIK | 0.059 | 0.05 | 0.051 | 0.166 | 0.258 | 0.061 | 0.173
3 | IFWM3332 (antibody, V domains shown, VH IFWH591, VL IFWL1074; converted mAb; also called IFWB3067) VH: EVQLVQSGAEVKKPGESLKISCKGSGYSFTSYWIGWVRQMPGKGLEWMGIIDPSDSDTRYSPSFQGQVTISADKSISTAYLQWSSLKASDTAMYYCARHPGLNWAPDFDYWGQGTLVTVSS VL: DIQMTQSPSSLSASVGDRVTITCRASQSIANTNLNWYQQKPGKAPKLLIHWASSLQSGVPSRFSGSGSGTDFTLTISSLQPEDFATYYCQQWYDNPLTFGQGTKVEIK | 0.034 | 0.031 | 0.054 | 0.135 | 0.139 | 0.05 | 0.076
4 | IFWM3333 (antibody, V domains shown, VH IFWH591, VL IFWL1076; converted mAb; also called IFWB3068) VH: EVQLVQSGAEVKKPGESLKISCKGSGYSFTSYWIGWVRQMPGKGLEWMGIIDPSDSDTRYSPSFQGQVTISADKSISTAYLQWSSLKASDTAMYYCARHPGLNWAPDFDYWGQGTLVTVSS VL: DIQMTQSPSSLSASVGDRVTITCRASQSIDNNNLNWYQQKPGKAPKLLIYAASSLQSGVPSRFSGSGSGTDFTLTISSLQPEDFATYYCQQGYDWPLTFGQGTKVEIK | 0.053 | 0.065 | 0.089 | 0.607 | 0.477 | 0.077 | 0.258
5 | IFWM3331 (antibody, V domains shown, VH IFWH591, VL IFWL1073; converted mAb; also called IFWB3066) VH: EVQLVQSGAEVKKPGESLKISCKGSGYSFTSYWIGWVRQMPGKGLEWMGIIDPSDSDTRYSPSFQGQVTISADKSISTAYLQWSSLKASDTAMYYCARHPGLNWAPDFDYWGQGTLVTVSS VL: DIQMTQSPSSLSASVGDRVTITCRASQSIDNSYLNWYQQKPGKAPKLLIYGASSLQSGVPSRFSGSGSGTDFTLTISSLQPEDFATYYCQQGWDWPLTFGQGTKVEIK | 0.015 | 0.012 | 0.013 | 0.072 | 0.085 | 0.015 | 0.026
6 | IFWM3357 (antibody, V domains shown, VH IFWH624, VL IFWL1038; converted mAb; also called IFWB3092) VH: EVQLVQSGAEVKKPGESLKISCKGSGYSFTSYWIGWVRQMPGKGLEWMGIIDPSDSDTAYSPSFQGQVTISADKSISTAYLQWSSLKASDTAMYYCARHPGLNWAPDFDYWGQGTLVTVSS VL: DIQMTQSPSSLSASVGDRVTITCRASQSISEYLNWYQQKPGKAPKLLIYFASSLQSGVPSRFSGSGSGTDFTLTISSLQPEDFATYYCQQSHSLPITFGQGTKVEIK | 0.004 | 0.023 | 0.039 | 0.13 | 0.17 | 0.014 | 0.037
7 | IFWM3327 (antibody, V domains shown, VH IFWH591, VL IFWL1063; converted mAb; also called IFWB3062) VH: EVQLVQSGAEVKKPGESLKISCKGSGYSFTSYWIGWVRQMPGKGLEWMGIIDPSDSDTRYSPSFQGQVTISADKSISTAYLQWSSLKASDTAMYYCARHPGLNWAPDFDYWGQGTLVTVSS VL: DIQMTQSPSSLSASVGDRVTITCRASQSIANNNLNWYQQKPGKAPKLLIHWASSLQSGVPSRFSGSGSGTDFTLTISSLQPEDFATYYCQQGYDTPFTFGQGTKVEIK | 0.039 | 0.034 | 0.035 | 0.113 | 0.164 | 0.035 | 0.106
8 | IFWM3355 (antibody, V domains shown, VH IFWH624, VL IFWL1022; converted mAb; also called IFWB3090) VH: EVQLVQSGAEVKKPGESLKISCKGSGYSFTSYWIGWVRQMPGKGLEWMGIIDPSDSDTAYSPSFQGQVTISADKSISTAYLQWSSLKASDTAMYYCARHPGLNWAPDFDYWGQGTLVTVSS VL: DIQMTQSPSSLSASVGDRVTITCRASQSINEFLNWYQQKPGKAPKLLIYFASSLQSGVPSRFSGSGSGTDFTLTISSLQPEDFATYYCQQSYSTPLTFGQGTKVEIK | 0.026 | 0.055 | 0.052 | 0.079 | 0.122 | 0.06 | 0.041
9 | IFWM3354 (antibody, V domains shown, VH IFWH624, VL IFWL1017; converted mAb; also called IFWB3089) VH: EVQLVQSGAEVKKPGESLKISCKGSGYSFTSYWIGWVRQMPGKGLEWMGIIDPSDSDTAYSPSFQGQVTISADKSISTAYLQWSSLKASDTAMYYCARHPGLNWAPDFDYWGQGTLVTVSS VL: DIQMTQSPSSLSASVGDRVTITCRASQSITSSLNWYQQKPGKAPKLLIYFASSLQSGVPSRFSGSGSGTDFTLTISSLQPEDFATYYCQQSFDLPLTFGQGTKVEIK | 0.017 | 0.043 | 0.032 | 0.098 | 0.123 | 0.043 | 0.052
10 | IFWM3334 (antibody, V domains shown, VH IFWH591, VL IFWL1082; converted mAb; also called IFWB3069) VH: EVQLVQSGAEVKKPGESLKISCKGSGYSFTSYWIGWVRQMPGKGLEWMGIIDPSDSDTRYSPSFQGQVTISADKSISTAYLQWSSLKASDTAMYYCARHPGLNWAPDFDYWGQGTLVTVSS VL: DIQMTQSPSSLSASVGDRVTITCRASQSIRNNSLNWYQQKPGKAPKLLIYAASSLQSGVPSRFSGSGSGTDFTLTISSLQPEDFATYYCQQDYNWPLTFGQGTKVEIK | 0.345 | 0.62 | 5.21 | 2.4 | 0.744 | 0.941 | 0.517

The next lines start with the values.

Row | Kd (human IFN-ω) [nM] | Kd (IFN-αC) [nM] | Kd (IFN-αF) [nM] | Kd (IFN-αJ1) [nM] | Kd (IFN-α4a) [nM] | Kd (IFN-αG) [nM] | Kd (IFN-αWA) [nM] | Binder
11 | 0.013 | 0.093 | 0.109 | 0.254 | 0.269 | 0.08 | 0.118 | IFWM3364 (antibody, V domains shown, VH IFWH624, VL IFWL1060; converted mAb; also called IFWB3099) VH: EVQLVQSGAEVKKPGESLKISCKGSGYSFTSYWIGWVRQMPGKGLEWMGIIDPSDSDTAYSPSFQGQVTISADKSISTAYLQWSSLKASDTAMYYCARHPGLNWAPDFDYWGQGTLVTVSS VL: DIQMTQSPSSLSASVGDRVTITCRASQSIRNSLNWYQQKPGKAPKLLIKWASSLQSGVPSRFSGSGSGTDFTLTISSLQPEDFATYYCQQLYDWPLTFGQGTKVEIK
12 | 0.018 | 0.054 | 0.047 | 0.223 | 0.319 | 0.048 | 0.123 | IFWM3358 (antibody, V domains shown, VH IFWH624, VL IFWL1041; converted mAb; also called IFWB3093) VH: EVQLVQSGAEVKKPGESLKISCKGSGYSFTSYWIGWVRQMPGKGLEWMGIIDPSDSDTAYSPSFQGQVTISADKSISTAYLQWSSLKASDTAMYYCARHPGLNWAPDFDYWGQGTLVTVSS VL: DIQMTQSPSSLSASVGDRVTITCRASQSITGFLNWYQQKPGKAPKLLIYAASSLQSGVPSRFSGSGSGTDFTLTISSLQPEDFATYYCQQSHDFPLTFGQGTKVEIK
13 | 0.025 | 0.056 | 0.049 | 0.174 | 0.233 | 0.043 | 0.061 | IFWM3360 (antibody, V domains shown, VH IFWH624, VL IFWL1048; converted mAb; also called IFWB3095) VH: EVQLVQSGAEVKKPGESLKISCKGSGYSFTSYWIGWVRQMPGKGLEWMGIIDPSDSDTAYSPSFQGQVTISADKSISTAYLQWSSLKASDTAMYYCARHPGLNWAPDFDYWGQGTLVTVSS VL: DIQMTQSPSSLSASVGDRVTITCRASQSIDGALNWYQQKPGKAPKLLIYFASSLQSGVPSRFSGSGSGTDFTLTISSLQPEDFATYYCQQAYDFPLTFGQGTKVEIK
14 | 0.03 | 0.101 | 0.135 | 0.388 | 0.622 | 0.066 | 0.098 | IFWM3361 (antibody, V domains shown, VH IFWH624, VL IFWL1051; converted mAb; also called IFWB3096) VH: EVQLVQSGAEVKKPGESLKISCKGSGYSFTSYWIGWVRQMPGKGLEWMGIIDPSDSDTAYSPSFQGQVTISADKSISTAYLQWSSLKASDTAMYYCARHPGLNWAPDFDYWGQGTLVTVSS VL: DIQMTQSPSSLSASVGDRVTITCRASQSIADFLNWYQQKPGKAPKLLIYFASSLQSGVPSRFSGSGSGTDFTLTISSLQPEDFATYYCQQSHSFPLTFGQGTKVEIK
15 | 0.021 | 0.041 | 0.053 | 0.136 | 0.147 | 0.04 | 0.051 | IFWM3359 (antibody, V domains shown, VH IFWH624, VL IFWL1047; converted mAb; also called IFWB3094) VH: EVQLVQSGAEVKKPGESLKISCKGSGYSFTSYWIGWVRQMPGKGLEWMGIIDPSDSDTAYSPSFQGQVTISADKSISTAYLQWSSLKASDTAMYYCARHPGLNWAPDFDYWGQGTLVTVSS VL: DIQMTQSPSSLSASVGDRVTITCRASQSINGVLNWYQQKPGKAPKLLIYFASSLQSGVPSRFSGSGSGTDFTLTISSLQPEDFATYYCQQSHDFPLTFGQGTKVEIK
